According to patent US20240368267A1 (KODIAK SCIENCES, published 2024):

Experiments:
[1] = biological target: T1, recombinant human IL-6 (human, UniProt P05231 30-212); test: Biacore, Fab lysate over IL-6 chip, 25 C
T1 construct: bought protein; also called interleukin-6
Protocol: Fab libraries were constructed containing random single point mutations for all 71 CDR positions, excluding substitutions for Cys, Met and Asn due to the chemical liabilities associated with these amino acids. Small-scale expression in 96 well plates format was utilized for screening the Fab libraries. E. coli colonies (TG1 cells, Zymo Research) containing randomized single point mutations were picked into 96 well plates (1.5 mL) and grown overnight at 30° C. in LB Amp+2% glucose. A separate 96 well plate was created on the following day by removing 100 μL of culture and adding 100 μL of 30% glycerol, then stored at −80° C. The remaining culture was spun down for 20 min and later resuspended in 1.5 mL of LB Amp containing 1 mM IPTG for induction of protein expression at 30° C. After 5 hours, cells were spun down, resuspended in 500 μL of HBS-EP+ buffer and lysed by one freeze/thaw cycle. Lysates were centrifuged for 30 minutes and vacuum filtered (200 μL) into round bottom 96 well plates for Biacore analysis.
Three ranges of antigen density (100-150 RU, 300-400 RU, 400-600 RU) were obtained by using variable flow times for each chip channel, later blocked with ethanolamine. Supernatants of the 96-well filtered culture lysates were injected at […] for 120 seconds. Fitting of dissociation curves (300 seconds) to single exponential decay curve was used for the determination of dissociation rates (koff). Chip surfaces were regenerated with 10 mM Glycine pH 1.7 solution injected at 50 μL/min during 60 seconds after every cycle of sample binding and dissociation.
T1 sequence (P05231 30-212 limits assumed): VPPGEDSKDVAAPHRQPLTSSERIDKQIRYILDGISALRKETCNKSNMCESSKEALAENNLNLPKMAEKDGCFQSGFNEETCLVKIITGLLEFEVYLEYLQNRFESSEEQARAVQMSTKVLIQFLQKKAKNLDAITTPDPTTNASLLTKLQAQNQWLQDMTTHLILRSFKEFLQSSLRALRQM

[2] = biological target: T1, recombinant human IL-6; test: Biacore, antibody captured on Protein A, IL-6 as analyte
Protocol: Antibodies were captured on a Protein A chip (GE) by injecting 1:20 cell supernatant dilutions at 10 μL/min for 60 seconds. […] The sensor chip was regenerated by a 60 seconds injection of 10 mM Glycine pH 1.7 at the flow rate of […]. […] For this setup, 1 μg/mL of purified antibody was injected over a Protein A chip at 10 μL/min for 25 seconds. […] The sensor chip was regenerated by a 60 seconds injection of 10 mM Glycine pH 1.7 at flow rate of 50 μL/min. Data analysis for supernatant and purified samples were performed using BIAevaluation software (GE). All sensorgrams were double reference subtracted and fit using a 1:1 Langmuir binding model.

[3] = biological target: T2, recombinant human IL-6 (human, UniProt P05231 30-212); test: SPR Biacore, cell supernatant dual inhibitor captured on Protein A, IL-6 analyte, 25 C
T2 construct: Analyte in the Biacore assays; also called interleukin-6
T2 sequence (P05231 30-212 limits assumed): as above

[4] = biological target: T2, recombinant human IL-6; test: SPR Biacore, purified dual inhibitor captured on Protein A, IL-6 analyte, 37 C

| koff [1] | binding result [2] | also measured | Binder |
| --- | --- | --- | --- |
| 0.00977 s⁻¹ |  |  | anti-IL-6 Fab, heavy chain S30G (Fab, V domains shown, built as m22 plus the named change) VH: EVQLVESGGGLVQPGGSLRLSCAASGFTFGPFAMSWVRQAPGKGLEWVAKISPGGSWTYYSDTVTGRFTFSLDTSKSTAYLQMNSLRAEDTAVYYCARQLWGYYALDIWGQGTLVTVSS VL: DIQLTQSPSSLSASVGDRVTITCSASISVSYMYWYQQKPGKAPKLLIYDMSNLASGVPSRFSGSGSGTDFTLTISSLQPEDFATYYCMQWSGYPYTFGQGTKVEIK |
| 0.00352 s⁻¹ |  |  | anti-IL-6 Fab, heavy chain S30V (Fab, V domains shown, built as m22 plus the named change) VH: EVQLVESGGGLVQPGGSLRLSCAASGFTFVPFAMSWVRQAPGKGLEWVAKISPGGSWTYYSDTVTGRFTFSLDTSKSTAYLQMNSLRAEDTAVYYCARQLWGYYALDIWGQGTLVTVSS VL: DIQLTQSPSSLSASVGDRVTITCSASISVSYMYWYQQKPGKAPKLLIYDMSNLASGVPSRFSGSGSGTDFTLTISSLQPEDFATYYCMQWSGYPYTFGQGTKVEIK |
| 0.00869 s⁻¹ |  |  | anti-IL-6 Fab, heavy chain S30W (Fab, V domains shown, built as m22 plus the named change) VH: EVQLVESGGGLVQPGGSLRLSCAASGFTFWPFAMSWVRQAPGKGLEWVAKISPGGSWTYYSDTVTGRFTFSLDTSKSTAYLQMNSLRAEDTAVYYCARQLWGYYALDIWGQGTLVTVSS VL: DIQLTQSPSSLSASVGDRVTITCSASISVSYMYWYQQKPGKAPKLLIYDMSNLASGVPSRFSGSGSGTDFTLTISSLQPEDFATYYCMQWSGYPYTFGQGTKVEIK |
| 0.00503 s⁻¹ |  |  | anti-IL-6 Fab, heavy chain Y103D (Fab, V domains shown, built as m22 plus the named change) VH: EVQLVESGGGLVQPGGSLRLSCAASGFTFSPFAMSWVRQAPGKGLEWVAKISPGGSWTYYSDTVTGRFTFSLDTSKSTAYLQMNSLRAEDTAVYYCARQLWGDYALDIWGQGTLVTVSS VL: DIQLTQSPSSLSASVGDRVTITCSASISVSYMYWYQQKPGKAPKLLIYDMSNLASGVPSRFSGSGSGTDFTLTISSLQPEDFATYYCMQWSGYPYTFGQGTKVEIK |
| 0.00529 s⁻¹ |  |  | anti-IL-6 Fab, light chain A54Y (Fab, V domains shown, built as m22 plus the named change) VH: EVQLVESGGGLVQPGGSLRLSCAASGFTFSPFAMSWVRQAPGKGLEWVAKISPGGSWTYYSDTVTGRFTFSLDTSKSTAYLQMNSLRAEDTAVYYCARQLWGYYALDIWGQGTLVTVSS VL: DIQLTQSPSSLSASVGDRVTITCSASISVSYMYWYQQKPGKAPKLLIYDMSNLYSGVPSRFSGSGSGTDFTLTISSLQPEDFATYYCMQWSGYPYTFGQGTKVEIK |
| 0.005 s⁻¹ |  |  | anti-IL-6 Fab, light chain S55I (Fab, V domains shown, built as m22 plus the named change) VH: EVQLVESGGGLVQPGGSLRLSCAASGFTFSPFAMSWVRQAPGKGLEWVAKISPGGSWTYYSDTVTGRFTFSLDTSKSTAYLQMNSLRAEDTAVYYCARQLWGYYALDIWGQGTLVTVSS VL: DIQLTQSPSSLSASVGDRVTITCSASISVSYMYWYQQKPGKAPKLLIYDMSNLAIGVPSRFSGSGSGTDFTLTISSLQPEDFATYYCMQWSGYPYTFGQGTKVEIK |
| 0.0052 s⁻¹ |  |  | anti-IL-6 Fab, light chain S55T (Fab, V domains shown, built as m22 plus the named change) VH: EVQLVESGGGLVQPGGSLRLSCAASGFTFSPFAMSWVRQAPGKGLEWVAKISPGGSWTYYSDTVTGRFTFSLDTSKSTAYLQMNSLRAEDTAVYYCARQLWGYYALDIWGQGTLVTVSS VL: DIQLTQSPSSLSASVGDRVTITCSASISVSYMYWYQQKPGKAPKLLIYDMSNLATGVPSRFSGSGSGTDFTLTISSLQPEDFATYYCMQWSGYPYTFGQGTKVEIK |
| 0.00943 s⁻¹ |  |  | anti-IL-6 Fab, light chain V29L (Fab, V domains shown, built as m22 plus the named change) VH: EVQLVESGGGLVQPGGSLRLSCAASGFTFSPFAMSWVRQAPGKGLEWVAKISPGGSWTYYSDTVTGRFTFSLDTSKSTAYLQMNSLRAEDTAVYYCARQLWGYYALDIWGQGTLVTVSS VL: DIQLTQSPSSLSASVGDRVTITCSASISLSYMYWYQQKPGKAPKLLIYDMSNLASGVPSRFSGSGSGTDFTLTISSLQPEDFATYYCMQWSGYPYTFGQGTKVEIK |
|  | binds |  | anti-IL-6 antibody, heavy chain variant I (M34I/G66D/I108V), light chain variant III (M32L/M50D/N52S/M88Q) (antibody, human IgG1, V domains shown, engineered human IgG1; also called I/III) VH: EVQLVESGGGLVQPGGSLRLSCAASGFTFSPFAISWVRQAPGKGLEWVAKISPGGSWTYYSDTVTDRFTFSLDTSKSTAYLQMNSLRAEDTAVYYCARQLWGYYALDVWGQGTLVTVSS VL: DIQLTQSPSSLSASVGDRVTITCSASISVSYLYWYQQKPGKAPKLLIYDDSSLASGVPSRFSGSGSGTDFTLTISSLQPEDFATYYCQQWSGYPYTFGQGTKVEIK |
|  | binds |  | anti-IL-6 antibody, heavy chain variant I (M34I/G66D/I108V), light chain variant IV (M32L/M50A/N52S/M88Q) (antibody, human IgG1, V domains shown, engineered human IgG1; also called I/IV) VH: EVQLVESGGGLVQPGGSLRLSCAASGFTFSPFAISWVRQAPGKGLEWVAKISPGGSWTYYSDTVTDRFTFSLDTSKSTAYLQMNSLRAEDTAVYYCARQLWGYYALDVWGQGTLVTVSS VL: DIQLTQSPSSLSASVGDRVTITCSASISVSYLYWYQQKPGKAPKLLIYDASSLASGVPSRFSGSGSGTDFTLTISSLQPEDFATYYCQQWSGYPYTFGQGTKVEIK |
|  | binds |  | anti-IL-6 antibody, heavy chain variant I (M34I/G66D/I108V), light chain variant V (M32L/M50D/M88Q) (antibody, human IgG1, V domains shown, engineered human IgG1; also called I/V) VH: EVQLVESGGGLVQPGGSLRLSCAASGFTFSPFAISWVRQAPGKGLEWVAKISPGGSWTYYSDTVTDRFTFSLDTSKSTAYLQMNSLRAEDTAVYYCARQLWGYYALDVWGQGTLVTVSS VL: DIQLTQSPSSLSASVGDRVTITCSASISVSYLYWYQQKPGKAPKLLIYDDSNLASGVPSRFSGSGSGTDFTLTISSLQPEDFATYYCQQWSGYPYTFGQGTKVEIK |
|  | binds |  | anti-IL-6 antibody, heavy chain variant II (M34W/G66D/I108V), light chain variant III (M32L/M50D/N52S/M88Q) (antibody, human IgG1, V domains shown, engineered human IgG1; also called II/III) VH: EVQLVESGGGLVQPGGSLRLSCAASGFTFSPFAWSWVRQAPGKGLEWVAKISPGGSWTYYSDTVTDRFTFSLDTSKSTAYLQMNSLRAEDTAVYYCARQLWGYYALDVWGQGTLVTVSS VL: DIQLTQSPSSLSASVGDRVTITCSASISVSYLYWYQQKPGKAPKLLIYDDSSLASGVPSRFSGSGSGTDFTLTISSLQPEDFATYYCQQWSGYPYTFGQGTKVEIK |
|  | binds |  | anti-IL-6 antibody, heavy chain variant II (M34W/G66D/I108V), light chain variant IV (M32L/M50A/N52S/M88Q) (antibody, human IgG1, V domains shown, engineered human IgG1; also called II/IV) VH: EVQLVESGGGLVQPGGSLRLSCAASGFTFSPFAWSWVRQAPGKGLEWVAKISPGGSWTYYSDTVTDRFTFSLDTSKSTAYLQMNSLRAEDTAVYYCARQLWGYYALDVWGQGTLVTVSS VL: DIQLTQSPSSLSASVGDRVTITCSASISVSYLYWYQQKPGKAPKLLIYDASSLASGVPSRFSGSGSGTDFTLTISSLQPEDFATYYCQQWSGYPYTFGQGTKVEIK |
|  | binds |  | anti-IL-6 antibody, heavy chain variant II (M34W/G66D/I108V), light chain variant V (M32L/M50D/M88Q) (antibody, human IgG1, V domains shown, engineered human IgG1; also called II/V) VH: EVQLVESGGGLVQPGGSLRLSCAASGFTFSPFAWSWVRQAPGKGLEWVAKISPGGSWTYYSDTVTDRFTFSLDTSKSTAYLQMNSLRAEDTAVYYCARQLWGYYALDVWGQGTLVTVSS VL: DIQLTQSPSSLSASVGDRVTITCSASISVSYLYWYQQKPGKAPKLLIYDDSNLASGVPSRFSGSGSGTDFTLTISSLQPEDFATYYCQQWSGYPYTFGQGTKVEIK |
|  |  | Kd [3]: 239 pM; koff [3]: 0.000169 s⁻¹; kon [3]: 705000 M⁻¹ s⁻¹; Kd [4]: 436 pM; koff [4]: 0.00065 s⁻¹; kon [4]: 1.49e+06 M⁻¹ s⁻¹ | dual inhibitor variant L of Table 2.1 (AntiIL-6-VEGF Trap) (other, Antibody-VEGF trap fusion, trap between Fab and Fc of the heavy chain (VH variant II); also called molecule L) heavy: EVQLVESGGGLVQPGGSLRLSCAASGFTFSPFAWSWVRQAPGKGLEWVAKISPGGSWTYYSDTVTDRFTFSLDTSKSTAYLQMNSLRAEDTAVYYCARQLWGYYALDVWGQGTLVTVSSASTKGPSVFPLAPSSKSTSGGTAALGCLVKDYFPEPVTVSWNSGALTSGVHTFPAVLQSSGLYSLSSVVTVPSSSLGTQTYICNVNHKPSNTKVDKKVEPKSCGGGGSGGGGSSDTGRPFVEMYSEIPEIIHMTEGRELVIPCRVTSPNITVTLKKFPLDTLIPDGKRIIWDSRKGFIISNATYKEIGLLTCEATVNGHLYKTNYLTHRQTNTIIDVVLSPSHGIELSVGEKLVLNCTARTELNVGIDFNWEYPSSKHQHKKLVNRDLKTQSGSEMKKFLSTLTIDGVTRSDQGLYTCAASSGLMTKKNSTFVRVHEKDKTHTCPPCPAPEAAGAPSVFLFPPKPKDTLMISRTPEVTCVVVDVSHEDPEVKFNWYVDGVEVHNAKTKPREEQYNSTYRVVSVLTVLHQDWLNGKEYKCKVSNKALPAPIEKTISKAKGQPREPQVYTLPPSREEMTKNQVSLTCLVKGFYPSDIAVEWESNGQPENNYKTTPPVLDSDGSFFLYSKLTVDKSRWQQGNVFSCSVMHEALHNHYTQKSLSCSPGK light: DIQLTQSPSSLSASVGDRVTITCSASISVSYLYWYQQKPGKAPKLLIYDDSNLASGVPSRFSGSGSGTDFTLTISSLQPEDFATYYCQQWSGYPYTFGQGTKVEIKRTVAAPSVFIFPPSDEQLKSGTASVVCLLNNFYPREAKVQWKVDNALQSGNSQESVTEQDSKDSTYSLSSTLTLSKADYEKHKVYACEVTHQGLSSPVTKSFNRGEC |
